Experimental data published in patent US20250145718A1 (ABL BIO, published 2025).
Like-named read-outs stand apart in the source and are kept apart here.

Legend:
[1] = target: T1, 4-1BB expressed on Jurkat cells (4-1BB-Jurkat cells; GloResponse NFkB-luc2/4-1BB Jurkat cell line) (human, UniProt Q07011 24-255); experiment: cell-based or functional assay
[2] = target: T2, human PD-L1-Fc protein (Sinobio, 10084-H02H) (human, UniProt Q9NZQ7 19-239); experiment: DACE (dual antigen capture ELISA): plate coated with human PD-L1-Fc, then bispecific, then human 4-1BB-His, anti-His HRP
T2 construct: Purchased reagent; not shown: Fc part of the purchased fusion
T2 sequence (Q9NZQ7 19-239): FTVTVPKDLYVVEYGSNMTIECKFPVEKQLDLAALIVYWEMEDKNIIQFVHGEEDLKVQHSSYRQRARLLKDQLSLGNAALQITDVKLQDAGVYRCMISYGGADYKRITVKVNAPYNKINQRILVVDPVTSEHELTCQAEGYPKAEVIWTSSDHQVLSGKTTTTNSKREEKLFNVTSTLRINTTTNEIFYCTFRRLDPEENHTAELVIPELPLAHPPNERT
Procedure: (§1) Briefly, microtiter plates were coated with 100 ng/well of human PD-L1-Fc protein (Sinobio, 10084-H02H) in PBS at 4° C. overnight, then blocked with 100 μl/well of 1% BSA for 2 hours at 37° C. Three-fold dilutions of each of the BsAbs starting from 100 nM were added to each well and incubated for 2 hours at 37° C. The plates were washed with PBS/Tween and then incubate with 50 ng/well of human 4-1BB-His protein (Sinobio, 16498-H08H) in 1% BSA for 1 hour at 37° C. The plates were washed with PBS/Tween and then incubate with Anti-His HRP (Roche, Cat: 11965085001) for 1 hour at 37° C. After washing, the plates were developed with TMB substrate and analyzed by spectrophotometer at OD 450-650 nm.

[3] = target: T2, human PD-L1-Fc protein (Sinobio, …); experiment: DACE after incubation in human serum for 3, 7, 14 days at 37 C
Procedure: as §1, with “Binding activity was analyzed to DACE (Dual antigen captured ELISA) test. Briefly,” for “Briefly,”

[4] = target: T2, human PD-L1-Fc protein (Sinobio, …); experiment: DACE (dual antigen capture ELISA): bispecific titrated on coated human PD-L1-Fc; signal also needs binding of human 4-1BB-His (anti-His HRP)
Procedure: as §1

[5] = target: T1, 4-1BB expressed on Jurkat cells …; experiment: cell-based or functional assay; remark: listed apart in the source
[6] = target: T2, human PD-L1-Fc protein (Sinobio, …); experiment: DACE after incubation in human serum at 37 C for 0, 3, 7 or 14 days: bispecific titrated on coated human PD-L1-Fc; signal also needs binding of human 4-1BB-His (anti-His HRP)
Procedure: as §1, with “Binding activity was analyzed to DACE (Dual antigen captured ELISA) test. Briefly,” for “Briefly,”

[7] = target: T3, human 4-1BB-His protein (Sinobio, 16498-H08H) (human, UniProt Q07011 24-186); experiment: DACE after incubation in human serum for 3, 7, 14 days at 37 C
T3 construct: Purchased reagent; not shown: His tag of the purchased protein
Procedure: as §1, with “Binding activity was analyzed to DACE (Dual antigen captured ELISA) test. Briefly,” for “Briefly,”

[8] = target: T3, human 4-1BB-His protein (Sinobio, …); experiment: DACE (dual antigen capture ELISA): bispecific captured on coated human PD-L1-Fc binds soluble human 4-1BB-His, detected with anti-His HRP
Procedure: as §1

[9] = target: T1, 4-1BB expressed on Jurkat cells …; experiment: cell-based or functional assay; remark: listed apart in the source
human 4-1BB-Fc protein = target: T4, human 4-1BB-Fc protein (human, UniProt Q07011 24-186, limits assumed); experiment: ELISA, plate coated with human 4-1BB-Fc, detection with anti-human IgG-HRP, OD 450-630 nm
T4 construct: not shown: Fc part of the fusion
Procedure: To evaluate the antigen binding activity, the antibody candidates were subjected to ELISA test. Briefly, microtiter plates were coated with human 4-1BB-Fc protein at 0.1 μg/ml in PBS, 100 μl/well at 4° C. overnight, then blocked with 100 μl/well of 5% BSA. […] The plates were washed with PBS/Tween and then incubate with goat-anti-human IgG antibody conjugated with Horse Radish Peroxidase (HRP) for 1 hour at RT. After washing, the plates were developed with TMB substrate and analyzed by spectrophotometer at OD 450-630 nm.

[10] = target: T5, 4-1BB (Octet Red 96 kinetics, Example 2.2(3)) (human, UniProt Q07011 24-186, limits assumed); experiment: BLI (Octet Red 96), affinity ranking
T5 construct: also called human 4-1BB
Description: To explore the binding kinetics of the humanized antibody, this example performed the affinity ranking by using Octet Red 96.

[11] = target: PD-L1 (Biacore kinetics, Example 1.5) (UniProt Q9NZQ7 19-238, limits assumed); experiment: SPR (Biacore), affinity ranking
PD-L1 (Biacore kinetics, Example 1.5), sequence (Q9NZQ7 19-238 limits assumed): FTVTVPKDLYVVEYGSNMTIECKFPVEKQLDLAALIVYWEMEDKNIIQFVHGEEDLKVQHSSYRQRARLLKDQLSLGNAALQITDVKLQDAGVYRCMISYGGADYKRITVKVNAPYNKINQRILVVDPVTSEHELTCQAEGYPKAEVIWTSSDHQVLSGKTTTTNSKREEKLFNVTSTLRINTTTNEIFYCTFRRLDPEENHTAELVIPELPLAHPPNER

T1 sequence (Q07011 24-255 limits assumed): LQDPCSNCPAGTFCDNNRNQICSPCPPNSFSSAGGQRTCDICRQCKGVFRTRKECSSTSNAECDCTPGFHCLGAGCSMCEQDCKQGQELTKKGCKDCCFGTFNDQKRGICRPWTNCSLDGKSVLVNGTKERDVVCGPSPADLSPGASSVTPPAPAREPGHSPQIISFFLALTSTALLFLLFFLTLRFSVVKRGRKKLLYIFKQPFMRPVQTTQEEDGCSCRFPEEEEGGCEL

B1: ABLPNB.03 (H12x41B02; anti-PD-L1 H12 in IgG form and anti-4-1BB 41B02 in scFv form) (bispecific antibody)
heavy: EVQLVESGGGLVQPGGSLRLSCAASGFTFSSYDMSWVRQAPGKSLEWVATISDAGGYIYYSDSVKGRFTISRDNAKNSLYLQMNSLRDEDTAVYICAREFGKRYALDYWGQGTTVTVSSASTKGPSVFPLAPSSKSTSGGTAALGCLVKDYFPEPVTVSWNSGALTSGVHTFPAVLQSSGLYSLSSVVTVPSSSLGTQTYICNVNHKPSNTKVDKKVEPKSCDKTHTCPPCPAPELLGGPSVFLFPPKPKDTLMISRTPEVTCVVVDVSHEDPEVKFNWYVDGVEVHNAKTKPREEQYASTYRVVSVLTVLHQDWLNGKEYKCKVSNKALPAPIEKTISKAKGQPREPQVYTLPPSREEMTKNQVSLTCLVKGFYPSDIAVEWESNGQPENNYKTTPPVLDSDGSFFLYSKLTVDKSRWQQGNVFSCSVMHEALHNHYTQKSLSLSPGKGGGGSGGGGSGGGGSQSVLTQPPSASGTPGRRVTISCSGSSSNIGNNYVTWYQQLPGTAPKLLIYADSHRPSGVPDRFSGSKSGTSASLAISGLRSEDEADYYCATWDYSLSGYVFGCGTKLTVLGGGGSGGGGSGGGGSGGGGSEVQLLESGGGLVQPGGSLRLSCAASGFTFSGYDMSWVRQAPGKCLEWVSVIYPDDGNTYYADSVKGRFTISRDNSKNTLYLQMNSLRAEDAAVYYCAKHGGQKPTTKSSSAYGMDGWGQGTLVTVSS
light: DIQMTQSPSSLSASVGDRVTITCKASQDVTPAVAWYQQKPGKAPKLLIYSTSSRYTGVPSRFSGSGSGTDFTFTISSLQPEDIATYYCQQHYTTPLTFGQGTKLEIKRTVAAPSVFIFPPSDEQLKSGTASVVCLLNNFYPREAKVQWKVDNALQSGNSQESVTEQDSKDSTYSLSSTLTLSKADYEKHKVYACEVTHQGLSSPVTKSFNRGEC
notes: IgG x scFv form, IgG1 N297A backbone
- EC50 (read off the curve), NFkB-luc2/4-1BB Jurkat reporter with PD-L1 positive target cells [1]: ~0.1 nM
- binding result [2]: binds

B2: ABLPNB.05 (B6x41B01.01; anti-PD-L1 B6 in IgG form and anti-4-1BB 41B01.01 in scFv form) (bispecific antibody)
heavy: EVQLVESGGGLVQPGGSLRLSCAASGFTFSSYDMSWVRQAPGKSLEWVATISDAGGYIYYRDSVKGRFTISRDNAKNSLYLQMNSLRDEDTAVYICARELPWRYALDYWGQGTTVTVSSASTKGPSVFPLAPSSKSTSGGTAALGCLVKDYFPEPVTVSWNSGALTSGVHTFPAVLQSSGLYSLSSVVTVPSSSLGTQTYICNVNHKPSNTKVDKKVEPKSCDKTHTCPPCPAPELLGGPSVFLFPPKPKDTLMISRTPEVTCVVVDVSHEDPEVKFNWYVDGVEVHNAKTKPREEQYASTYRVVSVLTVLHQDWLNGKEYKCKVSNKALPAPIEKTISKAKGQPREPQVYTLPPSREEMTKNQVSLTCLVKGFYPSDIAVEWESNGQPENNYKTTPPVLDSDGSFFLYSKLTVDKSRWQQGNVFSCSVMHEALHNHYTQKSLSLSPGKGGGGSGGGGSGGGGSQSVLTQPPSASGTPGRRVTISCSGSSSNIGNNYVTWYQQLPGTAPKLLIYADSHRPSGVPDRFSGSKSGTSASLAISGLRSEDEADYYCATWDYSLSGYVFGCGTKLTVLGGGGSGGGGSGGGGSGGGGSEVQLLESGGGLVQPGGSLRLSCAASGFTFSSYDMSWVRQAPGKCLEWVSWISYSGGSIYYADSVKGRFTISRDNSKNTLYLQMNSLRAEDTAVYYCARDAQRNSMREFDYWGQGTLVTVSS
light: DIQMTQSPSSLSASVGDRVTITCKASQDVTPAVAWYQQKPGKAPKLLIYSTSSRYTGVPSRFSGSGSGTDFTFTISSLQPEDIATYYCQQHYTTPLTFGQGTKLEIKRTVAAPSVFIFPPSDEQLKSGTASVVCLLNNFYPREAKVQWKVDNALQSGNSQESVTEQDSKDSTYSLSSTLTLSKADYEKHKVYACEVTHQGLSSPVTKSFNRGEC
notes: as for B1
- binding result [3]: binds

B3: ABLPNB.07 (B6x41B01.03; anti-PD-L1 B6 in IgG form and anti-4-1BB 41B01.03 in scFv form) (bispecific antibody)
heavy: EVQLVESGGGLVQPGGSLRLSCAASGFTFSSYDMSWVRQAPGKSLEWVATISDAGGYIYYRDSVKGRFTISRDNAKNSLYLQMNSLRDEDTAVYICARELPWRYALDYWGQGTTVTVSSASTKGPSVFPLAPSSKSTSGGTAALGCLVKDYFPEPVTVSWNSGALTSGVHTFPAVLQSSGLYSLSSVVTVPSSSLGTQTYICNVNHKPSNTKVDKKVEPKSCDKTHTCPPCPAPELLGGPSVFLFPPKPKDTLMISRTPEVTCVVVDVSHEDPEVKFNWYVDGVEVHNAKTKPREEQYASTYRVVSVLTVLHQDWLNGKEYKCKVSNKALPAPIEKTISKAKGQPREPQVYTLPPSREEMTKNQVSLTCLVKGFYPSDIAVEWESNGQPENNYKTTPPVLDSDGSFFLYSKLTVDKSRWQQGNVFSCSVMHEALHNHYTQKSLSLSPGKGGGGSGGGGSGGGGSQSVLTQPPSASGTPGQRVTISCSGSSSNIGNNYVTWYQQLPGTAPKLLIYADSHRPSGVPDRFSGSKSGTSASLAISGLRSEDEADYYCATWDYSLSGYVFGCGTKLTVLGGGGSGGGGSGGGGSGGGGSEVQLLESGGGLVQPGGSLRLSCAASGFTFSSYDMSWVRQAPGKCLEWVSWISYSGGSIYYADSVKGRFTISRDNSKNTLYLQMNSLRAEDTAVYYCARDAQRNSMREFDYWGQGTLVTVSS
light: DIQMTQSPSSLSASVGDRVTITCKASQDVTPAVAWYQQKPGKAPKLLIYSTSSRYTGVPSRFSGSGSGTDFTFTISSLQPEDIATYYCQQHYTTPLTFGQGTKLEIKRTVAAPSVFIFPPSDEQLKSGTASVVCLLNNFYPREAKVQWKVDNALQSGNSQESVTEQDSKDSTYSLSSTLTLSKADYEKHKVYACEVTHQGLSSPVTKSFNRGEC
notes: as for B1
- EC50 (read off the curve) [4]: ~0.9 nM
- EC50 (read off the curve), NFkB-luc2/4-1BB Jurkat reporter with PD-L1 positive target cells [5]: ~0.06 nM
- EC50 (read off the curve) [6]: ~0.2 nM

B4: ABLPNB.06 (anti-PD-L1 B6 in IgG form and anti-4-1BB 41B01.02 in scFv form) (bispecific antibody)
heavy: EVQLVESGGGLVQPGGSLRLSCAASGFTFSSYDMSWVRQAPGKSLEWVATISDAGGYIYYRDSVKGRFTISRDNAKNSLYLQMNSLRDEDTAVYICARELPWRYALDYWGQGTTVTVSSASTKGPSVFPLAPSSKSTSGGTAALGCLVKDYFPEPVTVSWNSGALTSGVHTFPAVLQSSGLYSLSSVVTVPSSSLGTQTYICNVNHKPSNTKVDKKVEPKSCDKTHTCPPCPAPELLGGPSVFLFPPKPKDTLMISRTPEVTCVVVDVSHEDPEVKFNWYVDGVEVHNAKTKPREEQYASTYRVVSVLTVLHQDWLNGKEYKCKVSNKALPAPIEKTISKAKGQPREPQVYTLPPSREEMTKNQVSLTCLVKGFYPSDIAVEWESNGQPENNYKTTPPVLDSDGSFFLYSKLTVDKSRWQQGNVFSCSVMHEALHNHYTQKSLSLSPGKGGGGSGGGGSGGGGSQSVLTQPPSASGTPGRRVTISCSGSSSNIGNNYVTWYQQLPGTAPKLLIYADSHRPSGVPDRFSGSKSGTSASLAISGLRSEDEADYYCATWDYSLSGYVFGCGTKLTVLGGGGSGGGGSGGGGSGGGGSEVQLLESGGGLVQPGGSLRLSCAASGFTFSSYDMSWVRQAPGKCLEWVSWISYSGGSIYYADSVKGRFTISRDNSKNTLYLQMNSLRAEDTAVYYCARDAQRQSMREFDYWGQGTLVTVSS
light: DIQMTQSPSSLSASVGDRVTITCKASQDVTPAVAWYQQKPGKAPKLLIYSTSSRYTGVPSRFSGSGSGTDFTFTISSLQPEDIATYYCQQHYTTPLTFGQGTKLEIKRTVAAPSVFIFPPSDEQLKSGTASVVCLLNNFYPREAKVQWKVDNALQSGNSQESVTEQDSKDSTYSLSSTLTLSKADYEKHKVYACEVTHQGLSSPVTKSFNRGEC
notes: as for B1
- binding result [3]: binds
- binding result [7]: binds

B5: ABLPNB.01 (H12x41B01; anti-PD-L1 H12 in IgG form and anti-4-1BB 41B01 in scFv form) (bispecific antibody)
heavy: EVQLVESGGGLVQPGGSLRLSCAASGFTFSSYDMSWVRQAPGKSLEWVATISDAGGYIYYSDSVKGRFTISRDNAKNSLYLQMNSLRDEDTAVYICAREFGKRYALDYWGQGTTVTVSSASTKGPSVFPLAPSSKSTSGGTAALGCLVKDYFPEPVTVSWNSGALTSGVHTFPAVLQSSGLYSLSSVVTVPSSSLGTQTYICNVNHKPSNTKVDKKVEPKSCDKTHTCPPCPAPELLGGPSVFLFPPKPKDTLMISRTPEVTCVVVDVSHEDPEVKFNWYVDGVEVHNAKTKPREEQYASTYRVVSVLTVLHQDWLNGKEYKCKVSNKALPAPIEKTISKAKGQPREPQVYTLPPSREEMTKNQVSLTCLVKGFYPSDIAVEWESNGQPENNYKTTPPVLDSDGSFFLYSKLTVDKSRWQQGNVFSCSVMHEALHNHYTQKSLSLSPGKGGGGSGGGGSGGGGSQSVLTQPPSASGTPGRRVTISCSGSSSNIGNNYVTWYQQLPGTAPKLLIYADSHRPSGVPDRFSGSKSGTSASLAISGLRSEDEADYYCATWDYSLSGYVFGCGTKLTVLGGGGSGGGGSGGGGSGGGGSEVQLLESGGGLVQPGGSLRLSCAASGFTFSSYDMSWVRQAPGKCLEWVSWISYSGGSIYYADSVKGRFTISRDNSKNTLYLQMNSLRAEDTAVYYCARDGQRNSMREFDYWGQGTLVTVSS
light: DIQMTQSPSSLSASVGDRVTITCKASQDVTPAVAWYQQKPGKAPKLLIYSTSSRYTGVPSRFSGSGSGTDFTFTISSLQPEDIATYYCQQHYTTPLTFGQGTKLEIKRTVAAPSVFIFPPSDEQLKSGTASVVCLLNNFYPREAKVQWKVDNALQSGNSQESVTEQDSKDSTYSLSSTLTLSKADYEKHKVYACEVTHQGLSSPVTKSFNRGEC
notes: IgG x scFv form; The heavy component is the H12 heavy chain (IgG1 N297A), a linker, and the scFv (VL-linker-VH, disulfide VL103-VH44)
- binding result [8]: binds
- binding result [2]: binds

B6: ABLPNB.08 (B6x41B01.04; anti-PD-L1 B6 in IgG form and anti-4-1BB 41B01.04 in scFv form) (bispecific antibody)
heavy: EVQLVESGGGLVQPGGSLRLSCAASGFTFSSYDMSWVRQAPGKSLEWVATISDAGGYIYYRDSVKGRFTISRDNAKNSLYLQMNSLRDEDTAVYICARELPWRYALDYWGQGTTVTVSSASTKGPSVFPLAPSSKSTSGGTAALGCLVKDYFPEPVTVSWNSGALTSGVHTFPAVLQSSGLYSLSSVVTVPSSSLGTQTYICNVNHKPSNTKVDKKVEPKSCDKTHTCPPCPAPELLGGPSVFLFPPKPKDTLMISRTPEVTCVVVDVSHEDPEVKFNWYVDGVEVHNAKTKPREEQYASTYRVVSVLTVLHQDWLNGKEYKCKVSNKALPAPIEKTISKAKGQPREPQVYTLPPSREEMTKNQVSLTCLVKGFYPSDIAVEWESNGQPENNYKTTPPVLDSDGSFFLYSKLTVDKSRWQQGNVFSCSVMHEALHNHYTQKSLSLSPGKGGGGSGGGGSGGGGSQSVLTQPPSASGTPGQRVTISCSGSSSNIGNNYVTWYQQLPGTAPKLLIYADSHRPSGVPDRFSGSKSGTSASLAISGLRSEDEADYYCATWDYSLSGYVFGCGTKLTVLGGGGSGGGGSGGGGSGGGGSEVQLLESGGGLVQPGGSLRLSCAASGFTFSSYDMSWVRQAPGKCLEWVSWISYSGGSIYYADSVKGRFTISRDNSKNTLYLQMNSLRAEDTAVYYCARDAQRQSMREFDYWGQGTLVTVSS
light: DIQMTQSPSSLSASVGDRVTITCKASQDVTPAVAWYQQKPGKAPKLLIYSTSSRYTGVPSRFSGSGSGTDFTFTISSLQPEDIATYYCQQHYTTPLTFGQGTKLEIKRTVAAPSVFIFPPSDEQLKSGTASVVCLLNNFYPREAKVQWKVDNALQSGNSQESVTEQDSKDSTYSLSSTLTLSKADYEKHKVYACEVTHQGLSSPVTKSFNRGEC
notes: as for B1
- binding result [3]: binds
- EC50 (read off the curve), NFkB-luc2/4-1BB Jurkat reporter with PD-L1 positive target cells [5]: ~0.09 nM

B7: ABLPNB.04 (B6x41B01; anti-PD-L1 B6 in IgG form and anti-4-1BB 41B01 in scFv form) (bispecific antibody)
heavy: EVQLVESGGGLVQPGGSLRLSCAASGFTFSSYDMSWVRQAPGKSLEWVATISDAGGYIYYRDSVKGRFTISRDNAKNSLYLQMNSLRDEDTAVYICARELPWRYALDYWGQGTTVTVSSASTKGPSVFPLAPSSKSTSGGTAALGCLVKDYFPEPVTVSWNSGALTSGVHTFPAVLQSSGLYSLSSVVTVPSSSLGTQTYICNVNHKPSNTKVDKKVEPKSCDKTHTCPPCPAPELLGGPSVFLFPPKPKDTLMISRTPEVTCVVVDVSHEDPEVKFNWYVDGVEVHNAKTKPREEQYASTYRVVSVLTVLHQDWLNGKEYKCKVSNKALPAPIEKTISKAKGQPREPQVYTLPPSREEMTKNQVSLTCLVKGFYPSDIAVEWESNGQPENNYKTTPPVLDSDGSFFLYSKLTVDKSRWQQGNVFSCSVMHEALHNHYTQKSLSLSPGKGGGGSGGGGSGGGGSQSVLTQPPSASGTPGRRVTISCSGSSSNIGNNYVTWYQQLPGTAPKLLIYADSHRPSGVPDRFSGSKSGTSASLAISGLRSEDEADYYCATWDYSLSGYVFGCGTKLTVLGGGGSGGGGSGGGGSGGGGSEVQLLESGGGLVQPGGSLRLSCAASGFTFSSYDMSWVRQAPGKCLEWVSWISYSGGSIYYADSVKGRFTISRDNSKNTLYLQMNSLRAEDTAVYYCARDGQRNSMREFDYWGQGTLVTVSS
light: DIQMTQSPSSLSASVGDRVTITCKASQDVTPAVAWYQQKPGKAPKLLIYSTSSRYTGVPSRFSGSGSGTDFTFTISSLQPEDIATYYCQQHYTTPLTFGQGTKLEIKRTVAAPSVFIFPPSDEQLKSGTASVVCLLNNFYPREAKVQWKVDNALQSGNSQESVTEQDSKDSTYSLSSTLTLSKADYEKHKVYACEVTHQGLSSPVTKSFNRGEC
notes: as for B1
- binding result [8]: binds
- EC50 (read off the curve) [4]: ~0.6 nM

B8: 41B01 (anti-4-1BB monoclonal antibody) (antibody, V domains shown)
VH: EVQLLESGGGLVQPGGSLRLSCAASGFTFSSYDMSWVRQAPGKGLEWVSWISYSGGSIYYADSVKGRFTISRDNSKNTLYLQMNSLRAEDTAVYYCARDGQRNSMREFDYWGQGTLVTVSS
VL: QSVLTQPPSASGTPGRRVTISCSGSSSNIGNNYVTWYQQLPGTAPKLLIYADSHRPSGVPDRFSGSKSGTSASLAISGLRSEDEADYYCATWDYSLSGYVFGGGTKLTVL
notes: Detected with anti-human IgG, so it was tested as a human IgG
- EC50 (read off the curve), NFkB-luc2/4-1BB Jurkat reporter, Fc-crosslinked antibody [9]: ~4 nM
- EC50 (read off the curve) (human 4-1BB-Fc protein): ~0.08 nM
- Kd [10]: 0.18 nM
- koff [10]: 0.000119 s⁻¹
- kon [10]: 658000 M⁻¹ s⁻¹

B9: 41B02 (anti-4-1BB monoclonal antibody) (antibody, V domains shown)
VH: EVQLLESGGGLVQPGGSLRLSCAASGFTFSGYDMSWVRQAPGKGLEWVSVIYPDDGNTYYADSVKGRFTISRDNSKNTLYLQMNSLRAEDAAVYYCAKHGGQKPTTKSSSAYGMDGWGQGTLVTVSS
VL: QSVLTQPPSASGTPGRRVTISCSGSSSNIGNNYVTWYQQLPGTAPKLLIYADSHRPSGVPDRFSGSKSGTSASLAISGLRSEDEADYYCATWDYSLSGYVFGGGTKLTVL
notes: Detected with anti-human IgG
- EC50 (read off the curve) (human 4-1BB-Fc protein): ~0.2 nM
- Kd [10]: 1.01 nM
- koff [10]: 0.000603 s⁻¹
- kon [10]: 595000 M⁻¹ s⁻¹

B10: H12 (Hu1210-41; Hu1210 VH.4d x Hu1210 VK.1) (antibody, V domains shown)
VH: EVQLVESGGGLVQPGGSLRLSCAASGFTFSSYDMSWVRQAPGKSLEWVATISDAGGYIYYSDSVKGRFTISRDNAKNSLYLQMNSLRDEDTAVYICAREFGKRYALDYWGQGTTVTVSS
VL: DIQMTQSPSSLSASVGDRVTITCKASQDVTPAVAWYQQKPGKAPKLLIYSTSSRYTGVPSRFSGSGSGTDFTFTISSLQPEDIATYYCQQHYTTPLTFGQGTKLEIK
notes: also called WT (H12)
- Kd [11]: 6.12 nM
- koff [11]: 0.000436 s⁻¹
- kon [11]: 71200 M⁻¹ s⁻¹

B11: B6 (anti-PD-L1 clone derived from Hu1210-41) (antibody, V domains shown)
VH: EVQLVESGGGLVQPGGSLRLSCAASGFTFSSYDMSWVRQAPGKSLEWVATISDAGGYIYYRDSVKGRFTISRDNAKNSLYLQMNSLRDEDTAVYICARELPWRYALDYWGQGTTVTVSS
VL: DIQMTQSPSSLSASVGDRVTITCKASQDVTPAVAWYQQKPGKAPKLLIYSTSSRYTGVPSRFSGSGSGTDFTFTISSLQPEDIATYYCQQHYTTPLTFGQGTKLEIK
- Kd [11]: 4.25 nM
- koff [11]: 0.000418 s⁻¹
- kon [11]: 98300 M⁻¹ s⁻¹
